Measurements taken from paper PMC7954794, “Protein context shapes the specificity of SH3 domain-mediated interactions in vivo” (Nature Communications, 2021).

Experiments:
Assay type in all cases: cell-based, Saccharomyces cerevisiae
BEM1-1 = test: DHFR-PCA on solid medium, bait BEM1-1 (Fig. 1B); details: bait BEM1-1, label = prey; for medrep (log2 median colony size normalized to plate background, PCA score): 2-8 replicates
Text: (§1) Supplement 41467_2021_21873_MOESM8_ESM.xlsx, sheet "Fig1B" | column: medsize; medrep; Ratio; Score

BEM1-2 = test: DHFR-PCA on solid medium, bait BEM1-2 (Fig. 1B); details: bait BEM1-2, label = prey; for medrep (log2 median colony size normalized to plate background, PCA score): 2-8 replicates; for Ratio (SH3-deleted/WT medrep): only significant differences showed, PPIs completely lost have a ratio of 0.1 and the gained PPIs 2.5
Text: as §1

BOI1 = test: DHFR-PCA on solid medium, bait BOI1 (Fig. 1B); details: bait BOI1, label = prey; 3-8 replicates
Text: as §1

BOI2 = test: DHFR-PCA on solid medium, bait BOI2 (Fig. 1B); details: bait BOI2, label = prey; for medrep (log2 median colony size normalized to plate background, PCA score): 3-8 replicates; for Ratio (SH3-deleted/WT medrep): only significant differences showed, PPIs completely lost have a ratio of 0.1 and the gained PPIs 2.5
Text: as §1

[1] = test system: 575 putative partners (preys) of 22 WT SH3-containing proteins; test: DHFR-PCA on solid medium, WT and SH3-deleted baits (Fig. 1B); parameters: key to Score: 0: SH3-independent; 1: SH3-dependent PPIs; 2: SH3-inhibited PPIs; details: for medrep (log2 median colony size normalized to plate background, PCA score): label = prey
Summary of the method: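 Interactions scored by DHFR protein-fragment complementation on solid medium using robotic pinning; preys (DHFR F[3] fusions) arrayed in duplicate with control borders. Baits carried C-terminal DHFR F[1,2]-FLAG tags, tested as wild type and as SH3-deleted versions carrying a flexible Gly/Ser stuffer.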

ABP1 = test: DHFR-PCA on solid medium, bait ABP1 (Fig. 1B); details: bait ABP1, label = prey; 2-4 replicates
Text: as §1

BBC1 = test: DHFR-PCA on solid medium, bait BBC1 (Fig. 1B); details: bait BBC1, label = prey; for medrep (log2 median colony size normalized to plate background, PCA score): 2-4 replicates; for Ratio (SH3-deleted/WT medrep): only significant differences showed, PPIs completely lost have a ratio of 0.1 and the gained PPIs 2.5
Text: as §1

[2] = bait SLA1-2, DHFR-PCA, Replicates 4 (2 for YCR009C, YDR388W)
[3] = bait SLA1-3, DHFR-PCA, Replicates 4 (2 for YCR009C, YDR388W, YIL033C)

B1: YAL041W (protein, UniProt P11433 1-854, looked up)
Cell division control protein …: MAIQTRFASGTSLSDLKPKPSATSISIPMQNVMNKPVTEQDSLFHICANIRKRLEVLPQLKPFLQLAYQSSEVLSERQSLLLSQKQHQELLKSNGANRDSSDLAPTLRSSSISTATSLMSMEGISYTNSNPSATPNMEDTLLTFSMGILPITMDCDPVTQLSQLFQQGAPLCILFNSVKPQFKLPVIASDDLKVCKKSIYDFILGCKKHFAFNDEELFTISDVFANSTSQLVKVLEVVETLMNSSPTIFPSKSKTQQIMNAENQHRHQPQQSSKKHNEYVKIIKEFVATERKYVHDLEILDKYRQQLLDSNLITSEELYMLFPNLGDAIDFQRRFLISLEINALVEPSKQRIGALFMHSKHFFKLYEPWSIGQNAAIEFLSSTLHKMRVDESQRFIINNKLELQSFLYKPVQRLCRYPLLVKELLAESSDDNNTKELEAALDISKNIARSINENQRRTENHQVVKKLYGRVVNWKGYRISKFGELLYFDKVFISTTNSSSEPEREFEVYLFEKIIILFSEVVTKKSASSLILKKKSSTSASISASNITDNNGSPHHSYHKRHSNSSSSNNIHLSSSSAAAIIHSSTNSSDNNSNNSSSSSLFKLSANEPKLDLRGRIMIMNLNQIIPQNNRSLNITWESIKEQGNFLLKFKNEETRDNWSSCLQQLIHDLKNEQFKARHHSSTSTTSSTAKSSSMMSPTTTMNTPNHHNSRQTHDSMASFSSSHMKRVSDVLPKRRTTSSSFESEIKSISENFKNSIPESSILFRISYNNNSNNTSSSEIFTLLVEKVWNFDDLIMAINSKISNTHNNNISPITKIKYQDEDGDFVVLGSDEDWNVAKEMLAENNEKFLNIRLY
medrep (log2 median colony size normalized to plate background, PCA score) (BEM1-1): 4.862
medrep (log2 median colony size normalized to plate background, PCA score) (BEM1-2): 4.862
medrep (log2 median colony size normalized to plate background, PCA score) (BOI1): 2.673
medrep (log2 median colony size normalized to plate background, PCA score) (BOI2): 3.947

B2: YDR166C (protein, UniProt P89102 1-971, looked up)
Exocyst complex component SEC5: MDRFQIGDEQLLRFYQLKTINPTHSWAQDSSKLNNEEATSNELGVETSFDILKDFKYGNQISIDKESRAYLNDESLSYIRDPLNGQEMSKELQHLPNDSMRLNYLVNSKQFNVKAFLRDMHKQDSFNDLNNSLDRLDSDIQDQSIHLKQLVGKNFTKYVKIKNKLDQIYKEFDEKTNEKNQCDSPKENQINVESLNKKVDEVIRTTTFKLKPLMDNYQKILNYQATKKFIELNKFYFNLPKSLKRCLTNNDFNEFIIEYSKGLTLRRRFNQSSDASQSLVIKRIWTQIENLLVTYKDLIWNSLINSNFNIDQPQETILSLFSKLLNLENFINNNQRESESGNKNTTSSSNENPILRWMSIKMNGFQNELNELSGHMISKIIHSQRLILQNNTNQDKSQGCVELSYYLKINQLFQIISDTGKDSEGLKSTVEPNKVNTISGTSYLNLNCQPSSQGLTDSPTIIEMWLLILKYINDLWKICDQFIEFWEHIEKFLDGTYQNSIINEKRKENILIGDSNIIESYQKSLILKEEQINEVRLKGEEFITSVSQNLISFFTSSQSSLPSSLKDSTGDITRSNKDSGSPLDYGFIPPNCNGLSCLRYLPKIVEPILKFSTELAQLNITTNGITICRNTLSTIINRCVGAISSTKLRDISNFYQLENWQVYETVTFSSKSQDSSKNLTFEYGVTQFPEIVTSFQEVSIKTTRDLLFAYEKLPIINGISVVSYPSKQLLTGIEIQQIISMEAVLEAILKNAAKDKDNPRNSHTILTLTNLQYFRECAFPNILQYFDDAFEWNLASKNLELFSLLSKMESSIFGNYLSDLKINLRDTLEEKFHEINWPMYTSNSFRVGDYIIEALMILIVVHSECFRIGPQLIHKILIETQIFIARYLFEAFKPYVGNLSNDGSLQIIVDLEFFQKVMGPLLEKDTEATLRACLQNCFQNDTNRLQKCINEINPIVSANLKRTAIQFAAFS
medrep (log2 median colony size normalized to plate background, PCA score) (BEM1-1): 2.981
medrep (log2 median colony size normalized to plate background, PCA score) (BEM1-2): 2.981
Ratio (SH3-deleted/WT medrep) (BEM1-2): 0.1
medrep (log2 median colony size normalized to plate background, PCA score) (BOI2): 1.688
Ratio (SH3-deleted/WT medrep) (BOI2): 0.1

B3: YNL243W (protein, UniProt P33338 1-968, looked up)
Protein SLA2: MSRIDSDLQKALKKACSVEETAPKRKHVRACIVYTWDHQSSKAVFTTLKTLPLANDEVQLFKMLIVLHKIIQEGHPSALAEAIRDRDWIRSLGRVHSGGSSYSKLIREYVRYLVLKLDFHAHHRGFNNGTFEYEEYVSLVSVSDPDEGYETILDLMSLQDSLDEFSQIIFASIQSERRNTECKISALIPLIAESYGIYKFITSMLRAMHRQLNDAEGDAALQPLKERYELQHARLFEFYADCSSVKYLTTLVTIPKLPVDAPDVFLINDVDESKEIKFKKREPSVTPARTPARTPTPTPPVVAEPAISPRPVSQRTTSTPTGYLQTMPTGATTGMMIPTATGAANAIFPQATAQMQPDFWANQQAQFANEQNRLEQERVQQLQQQQAQQELFQQQLQKAQQDMMNMQLQQQNQHQNDLIALTNQYEKDQALLQQYDQRVQQLESEITTMDSTASKQLANKDEQLTALQDQLDVWERKYESLAKLYSQLRQEHLNLLPRFKKLQLKVNSAQESIQKKEQLEHKLKQKDLQMAELVKDRDRARLELERSINNAEADSAAATAAAETMTQDKMNPILDAILESGINTIQESVYNLDSPLSWSGPLTPPTFLLSLLESTSENATEFATSFNNLIVDGLAHGDQTEVIHCVSDFSTSMATLVTNSKAYAVTTLPQEQSDQILTLVKRCAREAQYFFEDLMSENLNQVGDEEKTDIVINANVDMQEKLQELSLAIEPLLNIQSVKSNKETNPHSELVATADKIVKSSEHLRVDVPKPLLSLALMIIDAVVALVKAAIQCQNEIATTTSIPLNQFYLKNSRWTEGLISAAKAVAGATNVLITTASKLITSEDNENTSPEQFIVASKEVAASTIQLVAASRVKTSIHSKAQDKLEHCSKDVTDACRSLGNHVMGMIEDDHSTSQQQQPLDFTSEHTLKTAEMEQQVEILKLEQSLSNARKRLGEIRRHAYYNQDDD
medrep (log2 median colony size normalized to plate background, PCA score) [1, 2]: 4.4709
Score ([1]; bait SLA1-2, label = prey): 0
medrep (log2 median colony size normalized to plate background, PCA score) [1, 3]: 4.4709
Score ([1]; bait SLA1-3, label = prey): 0
medrep (log2 median colony size normalized to plate background, PCA score) (ABP1): 4.661
medrep (log2 median colony size normalized to plate background, PCA score) (BBC1): 2.46
Ratio (SH3-deleted/WT medrep) (BBC1): 0.1
medrep (log2 median colony size normalized to plate background, PCA score) (BEM1-1): 1.569
Ratio (SH3-deleted/WT medrep) (BEM1-1; only significant differences showed, PPIs completely lost have a ratio of 0.1 and the gained PPIs 2.5): 0.1
medrep (log2 median colony size normalized to plate background, PCA score) (BEM1-2): 1.569
Ratio (SH3-deleted/WT medrep) (BEM1-2): 0.1

B4: YKR048C (protein, UniProt P25293 1-417, looked up)
Nucleosome assembly protein: MSDPIRTKPKSSMQIDNAPTPHNTPASVLNPSYLKNGNPVRAQAQEQDDKIGTINEEDILANQPLLLQSIQDRLGSLVGQDSGYVGGLPKNVKEKLLSLKTLQSELFEVEKEFQVEMFELENKFLQKYKPIWEQRSRIISGQEQPKPEQIAKGQEIVESLNETELLVDEEEKAQNDSEEEQVKGIPSFWLTALENLPIVCDTITDRDAEVLEYLQDIGLEYLTDGRPGFKLLFRFDSSANPFFTNDILCKTYFYQKELGYSGDFIYDHAEGCEISWKDNAHNVTVDLEMRKQRNKTTKQVRTIEKITPIESFFNFFDPPKIQNEDQDEELEEDLEERLALDYSIGEQLKDKLIPRAVDWFTGAALEFEFEEDEEEADEDEDEEEDDDHGLEDDDGESAEEQDDFAGRPEQAPECKQS
medrep (log2 median colony size normalized to plate background, PCA score) [1, 2]: 1.303
Score ([1]; bait SLA1-2, label = prey): 1
Ratio (SH3-deleted/WT medrep) ([1]; bait SLA1-2, label = prey, only significant differences shown, PPIs completely lost have a ratio of 0.1, gained PPIs 2.5): 0.1
medrep (log2 median colony size normalized to plate background, PCA score) [1, 3]: 1.303
Score ([1]; bait SLA1-3, label = prey): 0
medrep (log2 median colony size normalized to plate background, PCA score) (ABP1): 3.939
medrep (log2 median colony size normalized to plate background, PCA score) (BBC1): 1.806
Ratio (SH3-deleted/WT medrep) (BBC1): 0.1
medrep (log2 median colony size normalized to plate background, PCA score) (BOI2): 1.303
Ratio (SH3-deleted/WT medrep) (BOI2): 2.5

B5: YER114C (protein)
chain: PMYIAINEYFKRMEDELDMKPGDKIKVITDDEEYKDGWYFGRNLRTNEEGLYPVVFTQKIT
medrep (log2 median colony size normalized to plate background, PCA score) (BEM1-1): 2.85
medrep (log2 median colony size normalized to plate background, PCA score) (BEM1-2): 2.85
Ratio (SH3-deleted/WT medrep) (BEM1-2): 0.1
medrep (log2 median colony size normalized to plate background, PCA score) (BOI2): 3.383
